From patent US20250360083A1 come the findings set out here.

The assay deals with CXCR4 receptor on J-Lat8.4, Jurkat E6 and U1 cells (human) (UniProt P61073). In words: cell-based or functional assay.

Consider “cyclic peptide cyclo (D-Tyr-Orn-Arg-Nal-Gly-) (CycPep), conjugated to DSPE-PEG and displayed on CXCR4 targeted lipid nanoparticles (T-LNP)”, for which the viral DNA excision (excised band intensity on gel), J-Lat8.4 and Jurkat E6 against U1 stood at 4 fold; the viral excision was under 60%.
